This note sets out measurements from patent US20170182124A1, “FGF21 Derivatives and Uses Thereof” (Novo Nordisk A/S, priority 2014, published 2017).

For series [1] the following is noted: pig, in vivo, iv.
Procedure: The purpose of this study was to determine the protraction in vivo of the FGF21 derivatives after i.v. administration to mini pigs and mice, i.e. the prolongation of their time in the body and thereby their time of action. This was done in a pharmacokinetic (PK) study, where the terminal half-life of the analogue in question was determined. By terminal half-life is meant the time it takes to halve a certain plasma concentration in the terminal elimination phase.
Female Gottingen mini pigs were obtained from Ellegaard Gottingen Minipigs (Dalmose, Denmark) approximately 7-14 months of age and weighing approximately 16-35 kg were used in the studies. The mini pigs were housed either individually (pigs with permanent catheters) or in a group and fed restrictedly once or twice daily with SDS mini pig diet (Special Diets Services, Essex, UK).
After at least 2 weeks of acclimatisation two permanent central venous catheters were implanted in vena cava caudalis or cranialis in each animal. The animals were allowed 1 week recovery after the surgery, and were then used for repeated pharmacokinetic studies with a suitable wash-out period between successive dosing.
Blood samples (for example 0.8 ml) were collected in EDTA (8 mM) coated tubes and then centrifuged at 4° C. and 1942G for 10 minutes. Blood samples were collected to adequately cover the full plasma concentration-time profile of the API. In example blood samples were collected at t=predose, 0.0833, 0.25, 0.5, 0.75, 1, 1.5, 2, 3, 4, 6, 8, 10, 24, 30, 48, 72, 96, 120, 144, 168, 192, 216, 240, 264 hours after dose.
Plasma was pipetted into Micronic tubes on dry ice, and kept at −20° C. until analysed for plasma concentration of the respective FGF-1 analogue using ELISA. Individual plasma concentration-time profiles were analyzed by a non-compartmental pharmacokinetic method in Phoenix v. 6.3 (Pharsight Inc., Mountain View, Calif., USA), or other relevant software for PK analysis, and the resulting terminal half-lives (harmonic mean) determined.
For series [2] the following is noted: mouse, in vivo, iv, 20 mg/kg.
Procedure: This was done in a pharmacokinetic (PK) study, where the terminal half-life of the analogue in question was determined. By terminal half-life is meant the time it takes to halve a certain plasma concentration in the terminal elimination phase.
The pharmacokinetic profile of FGF21 analogues was tested in normal lean C57b1 mice, n =2-3 (approximately 30 grams). FGF21 compounds were dosed as a single intravenous dose of 20 mg/kg (approximately 5 ml/kg).
The plasma levels of the FGF21 compounds were determined using Fibroblast Growth Factor-21 Human ELISA (available from BioVendor, catalogue no. RD191108200R). The PC based software, WnNonLin version 6.3 from Pharsight Corportion, Cary N.C., was used for the pharmacokinetic calculation.
The nature of series [3]: Body weight reduction in lean mice. The conditions noted are these: s.c. 1 mg/kg BID for 7 days, change from baseline day 1 to 7. It counts as in vivo, lean C57BL mice. As for the experimental part: In order to determine the in vivo potency of the FGF21 derivatives the effect on body weight was studied in lean C57BL mice after subcutaneous (s.c.) administration. It has previously been shown that the weight loss induced by FGF21 in lean mice is predictive of the effect in obese mice and therefore lean mice are considered a good screening model.
The compounds were administered s.c. 1 mg/kg either once (QD) or twice (BID) daily in 10 mM phosphate, 2% (w/vol) glycerol, 500ppm (=0.05%) polysorbate 80, pH=8.15, (2 ml/kg) for 7 days (n=7-8). The respective vehicle treated groups (control) were treated with 10 mM phosphate, 2% (w/vol) glycerol, 500ppm (=0.05%) polysorbate 80, pH=8.15, (2 ml/kg) s.c. twice daily for 7 days (n=6-8). Body weight was measured before dosing and again after 7 days treatment.

Series [4] addresses 3T3-L1 adipocytes (Mus musculus, UniProt P16092+Q99N32). Description: Glucose uptake in 3T3-L1 adipocytes. The class given is cell-based. The following applies: stimulated 20 hours, 3H-deoxy-glucose. The method in brief:
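Differentiated 3T3-L1 adipocytes (days 7-9 after troglitazone/IBMX/dexamethasone/insulin induction; express FGFR1c and βKL) stimulated with FGF21 analogues (0-300 nM) for 20 h. 3H-deoxy-glucose uptake over 1 h measured by scintillation counting after Triton lysis; EC50 and Emax derived.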

Marks after values point to notes of the source that are not given here.

3T3-L1 adipocytes, sequence (Q99N32 whole entry): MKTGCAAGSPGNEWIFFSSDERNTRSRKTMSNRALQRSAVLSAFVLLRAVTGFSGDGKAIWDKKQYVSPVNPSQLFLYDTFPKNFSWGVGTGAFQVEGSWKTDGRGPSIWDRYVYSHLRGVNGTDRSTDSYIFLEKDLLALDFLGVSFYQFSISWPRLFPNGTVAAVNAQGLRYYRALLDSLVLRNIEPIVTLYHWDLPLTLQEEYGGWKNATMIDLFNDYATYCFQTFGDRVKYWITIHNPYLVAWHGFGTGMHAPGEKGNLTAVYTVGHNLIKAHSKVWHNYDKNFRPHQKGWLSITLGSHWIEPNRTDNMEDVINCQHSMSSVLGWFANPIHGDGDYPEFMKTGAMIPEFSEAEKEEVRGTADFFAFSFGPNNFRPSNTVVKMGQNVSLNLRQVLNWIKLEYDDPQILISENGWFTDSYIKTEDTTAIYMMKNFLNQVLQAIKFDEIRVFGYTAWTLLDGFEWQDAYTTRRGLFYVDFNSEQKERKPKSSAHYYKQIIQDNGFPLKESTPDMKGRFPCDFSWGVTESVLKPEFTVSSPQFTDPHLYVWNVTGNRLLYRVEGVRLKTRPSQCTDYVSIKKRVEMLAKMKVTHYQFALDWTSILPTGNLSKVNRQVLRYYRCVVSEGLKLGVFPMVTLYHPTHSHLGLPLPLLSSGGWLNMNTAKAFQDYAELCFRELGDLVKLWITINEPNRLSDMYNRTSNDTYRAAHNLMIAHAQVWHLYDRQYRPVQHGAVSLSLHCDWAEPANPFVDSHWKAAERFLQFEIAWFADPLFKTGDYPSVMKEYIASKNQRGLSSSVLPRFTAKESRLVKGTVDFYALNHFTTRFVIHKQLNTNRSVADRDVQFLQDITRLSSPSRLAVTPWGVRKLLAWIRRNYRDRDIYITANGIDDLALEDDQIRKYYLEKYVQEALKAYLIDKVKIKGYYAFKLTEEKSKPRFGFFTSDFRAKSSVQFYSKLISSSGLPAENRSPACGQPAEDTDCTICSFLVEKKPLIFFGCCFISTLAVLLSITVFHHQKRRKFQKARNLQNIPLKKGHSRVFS
3T3-L1 adipocytes, sequence (P16092 22-822): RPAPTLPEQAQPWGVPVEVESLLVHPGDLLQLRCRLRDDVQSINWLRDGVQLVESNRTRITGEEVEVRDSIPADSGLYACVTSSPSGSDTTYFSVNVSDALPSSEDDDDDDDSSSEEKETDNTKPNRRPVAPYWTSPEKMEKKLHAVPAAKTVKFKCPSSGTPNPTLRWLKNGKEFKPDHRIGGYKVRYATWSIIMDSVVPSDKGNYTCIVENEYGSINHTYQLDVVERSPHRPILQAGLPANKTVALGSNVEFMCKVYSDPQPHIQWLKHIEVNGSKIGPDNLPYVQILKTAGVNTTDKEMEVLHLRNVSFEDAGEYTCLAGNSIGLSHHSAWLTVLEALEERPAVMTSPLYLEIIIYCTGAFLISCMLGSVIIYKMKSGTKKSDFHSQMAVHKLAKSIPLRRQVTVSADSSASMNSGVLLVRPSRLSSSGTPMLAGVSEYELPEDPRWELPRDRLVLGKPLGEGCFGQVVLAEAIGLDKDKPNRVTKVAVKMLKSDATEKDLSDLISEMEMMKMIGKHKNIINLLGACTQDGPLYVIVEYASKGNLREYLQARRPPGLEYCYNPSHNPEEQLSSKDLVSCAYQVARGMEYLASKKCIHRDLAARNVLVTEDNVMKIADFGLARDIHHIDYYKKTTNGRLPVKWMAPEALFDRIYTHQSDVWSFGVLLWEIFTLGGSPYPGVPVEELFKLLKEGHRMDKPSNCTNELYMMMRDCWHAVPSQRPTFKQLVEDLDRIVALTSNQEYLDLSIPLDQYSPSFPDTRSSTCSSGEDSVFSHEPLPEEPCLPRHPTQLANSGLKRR

B1: MetFGF21 (protein)
chain: MHPIPDSSPLLQFGGQVRQRYLYTDDAQQTEAHLEIREDGTVGGAADQSPESLLQLKALKPGVIQILGVKTSRFLCQRPDGALYGSLHFDPEACSFRELLLEDGYNVYQSEAHGLPLHLPGNKSPHRDPAPRGPARFLPLPGLPPALPEPPGILAPQPPDVGSSDPLSMVGPSQGRSPSYAS
B1 registered a Half-life mini pigs in series [1] of 2 h. This molecule registered a Half-life mice in series [2] of 1 h. In series [3], the “Mean Δ body weight (%)” value is listed as −1.88** %. In series [4], the “Glucose uptake Emax” value came out at 100%.
